According to patent US20210285971:

Tests used:
[1] = molecular target: synthetic Aβ40 peptide, P05067
[2] = molecular target: synthetic Aβ42 peptide, P05067
Chain of synthetic Aβ42 peptide, P05067 (P05067 whole entry, looked up, tested part not stated): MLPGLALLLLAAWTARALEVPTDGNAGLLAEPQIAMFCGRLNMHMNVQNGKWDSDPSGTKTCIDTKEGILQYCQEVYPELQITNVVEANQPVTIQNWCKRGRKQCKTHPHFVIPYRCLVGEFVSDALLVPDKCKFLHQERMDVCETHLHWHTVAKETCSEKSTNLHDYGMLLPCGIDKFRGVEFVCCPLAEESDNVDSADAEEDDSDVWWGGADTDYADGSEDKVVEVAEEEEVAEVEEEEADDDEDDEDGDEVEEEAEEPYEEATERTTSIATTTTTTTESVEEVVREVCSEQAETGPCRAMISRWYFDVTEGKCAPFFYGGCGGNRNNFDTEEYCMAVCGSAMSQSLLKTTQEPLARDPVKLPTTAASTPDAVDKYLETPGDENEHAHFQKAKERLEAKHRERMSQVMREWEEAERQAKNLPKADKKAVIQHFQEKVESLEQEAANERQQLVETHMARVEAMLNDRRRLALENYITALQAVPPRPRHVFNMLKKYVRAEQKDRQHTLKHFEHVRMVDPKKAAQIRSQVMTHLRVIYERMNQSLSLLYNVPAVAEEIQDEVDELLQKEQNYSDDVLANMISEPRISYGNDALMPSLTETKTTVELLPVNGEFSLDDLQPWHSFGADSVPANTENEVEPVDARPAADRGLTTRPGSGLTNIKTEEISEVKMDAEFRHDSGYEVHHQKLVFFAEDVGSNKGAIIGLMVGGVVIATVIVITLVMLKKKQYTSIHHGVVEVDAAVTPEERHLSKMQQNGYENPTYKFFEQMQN

Chain of synthetic Aβ40 peptide, P05067 (P05067 whole entry, looked up, tested part not stated): as above

B1: BACE1 from Fc purification (protein)
chain: ETDEEPEEPGRRGSFVEMVDNLRGKSGQGYYVEMTVGSPPQTLNILVDTGSSNFAVGAAPHPFLHRYYQRQLSSTYRDLRKGVYVPYTQGKWEGELGTDLVSIPHGPNVTVRANIAAITESDKFFINGSNWEGILGLAYAEIARPDDSLEPFFDSLVKQTHVPNLFSLQLCGAGFPLNQSEVLASVGGSMIIGGIDHSLYTGSLWYTPIRREWYYEVIIVRVEINGQDLKMDCKEYNYDKSIVDSGTTNLRLPKKVFEAAVKSIKAASSTEKFPDGFWLGEQLVCWQAGTTPWNIFPVISLYLMGEVTNQSFRITILPQQYLRPVEDVATSQDDCYKFAISQSSTGTVMGAVIMEGFYVVFDRARKRIGFAVSACHVHDEFRTAAVEGPFVTLDMEDCGYNIPQTDESTLMTIAY
For B1, the “cleavage in vitro analyzed by MALDI-MS” value [1] was “cleavage of Aβ40 and Aβ42 by BACE1 in vitro” and the “cleavage in vitro analyzed by MALDI-MS” value [2] was “cleavage of Aβ40 and Aβ42 by BACE1 in vitro”.
